Assay: yeast display, Sf9 membrane polyspecificity reagent, FACS + sequencing; frameworks hold sequencing errors
Method in brief: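 Galactose-induced (36–48 hours) yeast carrying a synthetic nanobody display library were exposed to 10% biotinylated, detergent-solubilized Sf9 membrane reagent at 4 °C for 1 hour. FACS followed streptavidin microbead enrichment, using low and high (top ~1%) gates for expression (anti-HA) and reagent binding (streptavidin). Colony PCR, MiSeq 2 × 250 sequencing and CDR-length filtering followed. Labels for polyreactivity reflect the gate of origin.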
With “QVQLVESGGGLVQAGGSLRLSSAASGSTFDHYAMGWYRQAPGKERELVAAITWSGGRTYYADSVKGRFTISRDNAKNTVYFQMNSLKPEDTAVYYCAARGYQIRVANYKYDSWGQGTQVTVSS” the “polyreactivity (PSR sort gate)” value was “low polyreactivity”.
With “QVQLVESGGGLVQAGGSLRLSSAASGSTFIRYAMGWYRQAPGKERELVAAISTSGGSTYYADSVKGRFTISRDNAKNTVYLQMNSLKPEDTAVYYCNAVSRSYRYAGVPGFHYDYWGQGTQVTVSS” the “polyreactivity (PSR sort gate)” value was “high polyreactivity”.
In the case of “QVQLVESGGGLVQAGGSLRLSSAASGSTFKFYAMGWYRQAPGKERELVAAIRYSGGSTYYADSVKGRFTISRDNAKNTVYLQMNSLKPEDTAVYFCATEAQCVTYWFGYWGQGTQVTVSS”, the “polyreactivity (PSR sort gate)” value is reported as “low polyreactivity”.
In the case of “QVQLVESGGGLVQAGGSLRLSSAASGSTFKYYAMGCYRQAPGKERELVAAITNDGSTSYADSVKGRFTISRDNAKNTVYLQMNSLTPEDTAVYYCNARSKYPSYFSSMGYWGQGTQVTVSS”, the “polyreactivity (PSR sort gate)” value is reported as “high polyreactivity”.
With “QVQLVESGGGLVQAGGSLRLSSAASGSTFKYYAMGWYRPDPGKERELVAAIRTSGGRTYYADSVKGRFTISRDNAKNTVDLQMNSLKPEDSAVYFCNARYNQFGQRFDYWGQGSQVTVSS” the “polyreactivity (PSR sort gate)” value was “high polyreactivity”.
In the case of “QVQLVESGGGLVQAGGSLRLSSAASGSTFPDYDMGWYRQAPGKERELVAAITSSGGITYYADSVKGRFTISRDNAKNTVYLQMNSLKPEDTSVSYCAAYGYGSNYRYTGYYYWGQGTEVTVSS”, the “polyreactivity (PSR sort gate)” value is reported as “low polyreactivity”.
With “QVQLVESGGGLVQAGGSLRLSSAASGSTFPSYAMGWYRQAPGKERELVAAINSGGGTNYADSVKGRFTISRDNAKNTVYLQMNSLKPEDTAVYYCAKSRYDYTKTEGGYWGLGTQVTVSS” the “polyreactivity (PSR sort gate)” value was “low polyreactivity”.
In the case of “QVQLVESGGGLVQAGGSLRLSSAASGSTFPVNARGCYRQAPGKERELVAAISSRGSSTYYADSVKGRFTISRDNAKNTVYLQMHSLNREDTAVYYCAAQQRFPRFYYWGEGTQVTVSS”, the “polyreactivity (PSR sort gate)” value is reported as “high polyreactivity”.
With “QVQLVESGGGLVQAGGSLRLSSAASGSTFPYNAMGWYRQAPGKARELVAAITSRGGSTYYADSVKGRFTISRDNAKNTVYLQMNSLKPEDTAVYYCATPGDTYGWTRRRYYYWGQGTQVTVSS” the “polyreactivity (PSR sort gate)” value was “high polyreactivity”.
In the case of “QVQLVESGGGLVQAGGSLRLSSAASGSTFQIYTMGWSRQAPGKESELVAAITNGGGSTYYADSVKGRFTISRDNAKNTVYLQMNSLKPEDTAVYYCAAEQRYPLIILYDDWGQGTQVTVSS”, the “polyreactivity (PSR sort gate)” value is reported as “low polyreactivity”.
With “QVQLVESGGGLVQAGGSLRLSSAASGSTFRGNAMGWYRQAPGKERELVAAITGRGGRTYYADSVKGRFTISRDNAKNTVYLQMNSLKPEDTAVYYCAAYSRYKPYGITAYDYWGLGTQVTVSS” the “polyreactivity (PSR sort gate)” value was “high polyreactivity”.
In the case of “QVQLVESGGGLVQAGGSLRLSSAASGSTFRYYTMGWYRPAPGKERELVADITIGGSTYYADSVKGRFTISRDNAKNTVYLQMNSLKPEDSAVYYCAARSTGGRIFATGVAYDYWGQGTQVTVSS”, the “polyreactivity (PSR sort gate)” value is reported as “low polyreactivity”.
With “QVQLVESGGGLVQAGGSLRLSSAASGSTFTSYAMGWYRQAPGKERELVAAINYSGGSTYYADSVKGRFTISRDNAKNNVYLQMNILKQEDTAVYDCAADGYIRQYVTYYYWGQGTQVTVSS” the “polyreactivity (PSR sort gate)” value was “low polyreactivity”.
With “QVQLVESGGGLVQAGGSLRLSSAASGSTFTSYAMGWYRQAPGKEREVVSTITGRGGSTSYSDSVKGRFTISRDNAKNTVYLQMNSLKPEDTAVYYCAKRVVVWYFGTGDYWGQGTKVTVSS” the “polyreactivity (PSR sort gate)” value was “low polyreactivity”.
With “QVQLVESGGGLVQAGGSLRLSSAASGSTFYRYAMGWYRQAPGKERELVAAISRSGGNTFYADSVKGRFTISRDNAKNTVYLQMNSLKPEDTAVYYCAALRSWYGQTSGMDYWGQGTQVTVSS” the “polyreactivity (PSR sort gate)” value was “high polyreactivity”.
For “QVQLVESGGGLVQAGGSLRLSSAASGSTLVIYAMGWYRQAPGIERQLVAAIDANTGSTYYADSVKGRFTISLDNAKNTDYLQMNSLKPEDTAVYYCNAQVYLPTAYDYWGQGTLVTVSS”, the “polyreactivity (PSR sort gate)” value was “low polyreactivity”.
In the case of “QVQLVESGGGLVQAGGSLRLSSAASGSTSFQNAMGWYRQATGKEREFVAAISGSGDRTNYADSVKGRFTISRDNAMYTVYVQMNSLKPEDTAVYYCAAVRGYPPSNYYYWGQGTQVTVSS”, the “polyreactivity (PSR sort gate)” value is reported as “high polyreactivity”.
In the case of “QVQLVESGGGLVQAGGSLRLSSAASGSTYDFKAMGWNRQAHGKERELFAAITGSGGSTDNADSVKGRFTISRDNAKNSVYLQMNSLKPEDTAVYYCNAGKTFDYRDGVGYDHWGQGTQVTVSS”, the “polyreactivity (PSR sort gate)” value is reported as “low polyreactivity”.
With “QVQLVESGGGLVQAGGSLRLSSAASGYIFTYYTMGCSRQAPGKERELVAAITYSGSRTRYADSVKGRFTISRDNAKNTVYLQMNSLKPEDNAVYYCAAVYRLKSGGEWRDSQFGYWGQGTQVTVSS” the “polyreactivity (PSR sort gate)” value was “high polyreactivity”.
For “QVQLVESGGGLVQAGGSLRLSSAGSGSIFTGYAMGWYRPAPGKERELVAAIRTRGGSTYYADSVKGRFTISRDNAKNTVYLQMNSLKPEDNAVYYCANRYFGWYGNFDDWGQGTQVTVSS”, the “polyreactivity (PSR sort gate)” value was “high polyreactivity”.
In the case of “QVQLVESGGGLVQAGGSLRLSSASSGFTFSYYAMGWSRPAPGKERELVAAITSDGGRTYYADSVKGRFTISRDNAKNTVYLQMNSLKPEDTAVYYCAARTRYRGIKGYNYWGQGTQVTVSS”, the “polyreactivity (PSR sort gate)” value is reported as “high polyreactivity”.
For “QVQLVESGGGLVQAGGSLRLSSASSGSIFYVYAMGWYRQAPGKERELVAAIYSGASTYYADSVKGRFTISRDNAKNSVYLQMNSLKPEDTAVYYCADERYFYEYDYWGQGTQVTVSS”, the “polyreactivity (PSR sort gate)” value was “low polyreactivity”.
For “QVQLVESGGGLVQAGGSLRLSSDASGSIFHTYAMGWYRQAPGKERELVAAITVSGGDTYYADSVKGRFTISRDNAKNTVYLQKISLKAEDTAVYYCAVDTTTSYTVEYDYWGQGTQVTVSS”, the “polyreactivity (PSR sort gate)” value was “low polyreactivity”.
With “QVQLVESGGGLVQAGGSLRLSSPASGRTFPGNPMGWYRQAPGKLRELVAAITRVRSTYYADSVKGRFTISRDNAKNTVYLQMNWLKPEDTVVYYCAADRLEGSYEDDATGFDDWGQGTQVTVSS” the “polyreactivity (PSR sort gate)” value was “low polyreactivity”.
In the case of “QVQLVESGGGLVQAGGSLRLSSSASGSTFWYYVRGRYRQAPGKERELVAAISTRGDSTYYADSVKGRFTISRDNAKNSVYLQINSLKPEDTAVYYCAKSRQSSGRVRFDYWGQGTEVTVSS”, the “polyreactivity (PSR sort gate)” value is reported as “low polyreactivity”.
In the case of “QVQLVESGGGLVQAGGSLRLSTAASGSTLWYNDMGWFRKAPGKERELVASITSDGGSSTYADSVKGRFTISRDNEKNTVYLQMNSLKPEDTAVYYCAADWPIVQYDYWGQGTQVTVSS”, the “polyreactivity (PSR sort gate)” value is reported as “low polyreactivity”.
In the case of “QVQLVESGGGLVQAGGSLRLSWAASGFIFPYNAMGWYRQAPGKERELVAVISSSGGDTYYADSVKGRFTISRDNAKNTVYLQMNSLIPVDTAVYYCAADSYYGYEYWGQGTQVTVSS”, the “polyreactivity (PSR sort gate)” value is reported as “low polyreactivity”.
In the case of “QVQLVESGGGLVQAGGSLRLSWAASGGNFEYNAMGWYRQAPGKERELVAAITNGGSTNYADSVKGRFSISRDNAKNTVYIQMNSLKPDDTAVYYCATVFFVLPPTRFASWGQGTQVTVSS”, the “polyreactivity (PSR sort gate)” value is reported as “low polyreactivity”.
For “QVQLVESGGGLVQAGGSLRLSWAASGRTFDYNAMGWYRQAPGKERELVAAITSSGGSTYYADSVKGRFTISRDNAKNTVYLQMNSLKPEDTAVYYCDTDGQSPYYIYYWGQGTQVTVSS”, the “polyreactivity (PSR sort gate)” value was “low polyreactivity”.
For “QVQLVESGGGLVQAGGSLRLSWAASGSIFGLNALGWYRQAPGKERELVADITSGGGNTYSADSVKGRFTISRDNAKNTVYLQMNSLKPEDTAVYYCNADYDLYFSGWYDYWGQGTQVTVSS”, the “polyreactivity (PSR sort gate)” value was “low polyreactivity”.
For “QVQLVESGGGLVQAGGSLRLSWAASGSIFTLNAMGWYRQAPGKERELVAAIRWSGGSTYYADSVKGRFTISRDNAKNTGYLQRNRLKPEDTAVYYCAAKYPSDYYSPGFKYWGQGTQVTVSS”, the “polyreactivity (PSR sort gate)” value was “high polyreactivity”.
In the case of “QVQLVESGGGLVQAGGSLRLSWAASGSKSCADVMGWYRPEPGKERELLAAISSGTSTYYADSVKGRFTISRDNAKNTVYLQMNSLKPEDTGVYYCAAYYYSYPTNGGYGYCGQGTQVTVSS”, the “polyreactivity (PSR sort gate)” value is reported as “low polyreactivity”.
With “QVQLVESGGGLVQAGGSLRLSWAASGSSFGYAMGWYRQGPGKERELVAAISFSGVSTYYADSVKGRFTISRDNAKHTVYLQMNSLKPEDTAVYYCNAYSDGDEDYWGQGTQVTVSS” the “polyreactivity (PSR sort gate)” value was “low polyreactivity”.
With “QVQLVESGGGLVQAGGSLRLSWAASGSTFVHNAMGWYIQAPGKERELVAGISRTGGSTYYADSVKGRFTISRDNAKNTVYLQMNSLKPEDTAVYYCAVRYPRSWQFDYWGQGTQVNVSS” the “polyreactivity (PSR sort gate)” value was “high polyreactivity”.
In the case of “QVQLVESGGGLVQAGGSLRLSWAASGSTLLSNAMGWSTQAPGKERELVAAINYSGGRTYYADSVKGRFTISRDHAQNTVYLQMNSLKPEDTAVYYCNALSSGHGSSSRYDYWGQGTQVTVSS”, the “polyreactivity (PSR sort gate)” value is reported as “low polyreactivity”.
For “QVQLVESGGGLVQAGGSLRLSYAASGSTFRVYAMGWYRQAPGKERELVAAISRSGGRTYYADSVKGRFTISRDNAKNTVYLQMNSLKPEDTAVYYCAADYKYTAVSDDYWGQGTQVTVSS”, the “polyreactivity (PSR sort gate)” value was “high polyreactivity”.
With “QVQLVESGGGLVQAGGSLRLSYAPSGRTFGYYAMGWYRQAPGKERELVAAIRSTGSTNYADSVKGRFTISRDNAKNTVYLQMNRLKPEDTAVYYCNAKRRFRYDYWGQGTQVTVSS” the “polyreactivity (PSR sort gate)” value was “low polyreactivity”.
In the case of “QVQLVESGGGLVQAGGSLRLTCAASAFIYRRNAMGSYRQAPGKERELVAAITGGGGSTYYADSVKGSFTISRDNAKNTVYLQMNSLKPEDTAVYYCAVDLSRLYNRGGDYWGQGTQVTVSS”, the “polyreactivity (PSR sort gate)” value is reported as “high polyreactivity”.
In the case of “QVQLVESGGGLVQAGGSLRLTCAASARTFFRNTMGSYRQATGKERELVATISWSGGSTNSADSVKGRFTISRDNAKNTVSLQMNSLKPEDTAVYYCAAVDYDTSIYDRPGGFDYWGQGTQVTVSS”, the “polyreactivity (PSR sort gate)” value is reported as “low polyreactivity”.
In the case of “QVQLVESGGGLVQAGGSLRLTCAASGFIFKIYARGWYRQAPGKERELVARITRSGGSTYYADSVKGRFTISRDNAKNTVYLQMNSLKPEDTAVYSCNAELFRYVRYDYWGQGTQVTVSS”, the “polyreactivity (PSR sort gate)” value is reported as “high polyreactivity”.
For “QVQLVESGGGLVQAGGSLRLTCAASGFIFQYYAMGWYRQAPGKEREFVAAISSSGTSTYYADSVKGRFTISRDNAKNTVYLQMNSLKPEDTAVYYCAAREAGLYWLYYPGLRYYYWGQGTQVTVSS”, the “polyreactivity (PSR sort gate)” value was “high polyreactivity”.
For “QVQLVESGGGLVQAGGSLRLTCAASGFIFRSYAMGWYRQAPGKERELVAAINSRAGNTYYADSVKGRFTISRDNAKNTVYLQMNSLKPEDTAVYYCAVRSYSPRSRGMGYWGQGTQVTVSS”, the “polyreactivity (PSR sort gate)” value was “high polyreactivity”.
With “QVQLVESGGGLVQAGGSLRLTCAASGFTFGVYAMGWYRQAPGKERELVAAIDDGTNTYYADSVKGRFTISRDNAKNTVYLQMNSLKPEDTAVYYCNADDPYYIAEQSWSESDYWGQGTQVTVSS” the “polyreactivity (PSR sort gate)” value was “low polyreactivity”.

Reference: the nanobody polyreactivity screen of Harvey et al. (2022)
